In the supplement of paper PMC10567573:

B1: GMCL1 (parent)
chain: RPDTGDDAAGHGFCYCAGSHKRKR

Variants of: B1
Test: protein stability index of a GFP-peptide fusion (GPS, HEK-293T) (PSI 1-6); higher = more stable
Conditions: c terminus: a fixed tail appended
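Further: lentivirally expressed fusions sorted by FACS into six bins by GFP to DsRed ratio, PSI derived from sequencing read proportions per bin multiplied by bin number.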

Row | Variant | protein stability index
1 | D6T | 2.89
2 | D6R | 3.23
3 | D6Y | 3.15
4 | D6M | 2.79
5 | D6N | 3.57
6 | D6K | 3.27
7 | D6G | 3.16
8 | D6L | 3.13
9 | D6P | 2.96
10 | D6S | 2.97
11 | D6C | 3.8
12 | D6E | 3.46
13 | D6F | 2.73
14 | D6H | 2.8
15 | D6A | 3.21
16 | D6W | 2.99
17 | D6I | 3.05
18 | D6Q | 3.46
19 | D6V | 2.93
20 | G10M | 3.2
21 | G10N | 3.71
22 | G10K | 3.22
23 | G10A | 2.86
24 | G10D | 3.37

Row | Variant | protein stability index
25 | G10L | 2.36
26 | G10E | 3.14
27 | G10H | 3.1
28 | G10I | 2.71
29 | G10P | 2.73
30 | G10C | 2.78
31 | G10F | 2.9
32 | P2W | 3.4
33 | P2F | 2.91
34 | P2E | 3.14
35 | P2Q | 2.91
36 | P2R | 2.85
37 | P2N | 3.27
38 | P2L | 2.77
39 | P2T | 2.3
40 | P2G | 3.01
41 | P2H | 2.96
42 | P2D | 3.46
43 | P2Y | 3.41
44 | P2V | 2.89
45 | P2C | 3.23
46 | P2S | 2.95
47 | P2A | 3.02
48 | P2K | 3.35

Row | Variant | protein stability index
49 | P2M | 3.05
50 | P2I | 3.08
51 | G5V | 2.99
52 | G5Q | 2.87
53 | G5A | 3.37
54 | G5E | 2.93
55 | G5L | 3.1
56 | G5I | 3.28
57 | G5T | 2.97
58 | G5H | 2.48
59 | G5P | 3.48
60 | G5F | 2.59
61 | G5W | 2.59
62 | G5M | 2.84
63 | G5C | 3.63
64 | G5S | 3.5
65 | G5D | 2.89
66 | G5Y | 3.27
67 | G5R | 3.15
68 | G5N | 3.17
69 | G5K | 3.45
70 | D7Y | 2.99
71 | D7P | 3.28
72 | D7F | 2.83

Row | Variant | protein stability index
73 | D7W | 2.2
74 | D7G | 3.3
75 | D7K | 3.03
76 | D7R | 3.51
77 | D7H | 3.09
78 | D7Q | 2.83
79 | D7L | 3.03
80 | D7E | 3.95
81 | D7S | 3.47
82 | D7V | 3.16
83 | D7A | 3.46
84 | D7I | 3.08
85 | D7C | 3.02
86 | D7M | 3.44
87 | D7T | 3.49
88 | D7N | 3.13
89 | D3G | 2.19
90 | D3I | 3.29
91 | D3A | 2.62
92 | D3M | 2.3
93 | D3T | 2.86
94 | D3N | 3.31
95 | D3E | 2.41
96 | D3V | 3.91

Row | Variant | protein stability index
97 | D3H | 3.4
98 | D3L | 3.14
99 | D3K | 3.62
100 | D3P | 3.64
101 | D3Q | 2.51
102 | D3C | 2.97
103 | D3R | 3.19
104 | D3W | 3.04
105 | D3Y | 3.15
106 | D3F | 2.76
107 | D3S | 3.14
108 | A8D | 2.97
109 | A8V | 3.18
110 | A8W | 3.38
111 | A8T | 2.73
112 | A8C | 3.23
113 | A8P | 3.09
114 | A8G | 3.11
115 | A8N | 2.96
116 | A8R | 3.08
117 | A8L | 2.36
118 | A8I | 3.06
119 | A8Y | 2.61
120 | A8F | 2.61

Row | Variant | protein stability index
121 | A8K | 2.94
122 | A8S | 3.72
123 | A8E | 3.26
124 | A8M | 2.85
125 | A8H | 3.61
126 | A8Q | 3.16
127 | R1Y | 2
128 | R1V | 2.5
129 | R1W | 3.2
130 | A9T | 3.55
131 | A9F | 2.72
132 | A9Q | 3.06
133 | A9C | 3.89
134 | A9L | 2.71
135 | A9N | 3.52
136 | A9G | 3.43
137 | A9I | 2.65
138 | A9K | 3.07
139 | A9R | 3.46
140 | A9H | 2.48
141 | A9D | 3.81
142 | A9P | 3.01
143 | A9M | 2.96
144 | A9E | 3.05

Row | Variant | protein stability index
145 | A9Y | 3.05
146 | A9W | 2.96
147 | A9V | 2.96
148 | A9S | 2.7
149 | T4A | 3.06
150 | T4V | 3
151 | T4D | 3.79
152 | T4Y | 2.87
153 | T4F | 3.28
154 | T4I | 3.06
155 | T4S | 3.06
156 | T4K | 3.14
157 | T4C | 2.14
158 | T4M | 2.98
159 | T4R | 3.6
160 | T4Q | 3.47
161 | T4E | 3.16
162 | T4N | 2.97
163 | T4L | 2.81
164 | T4W | 2.71
165 | T4P | 2.96
166 | T4H | 3.11
167 | T4G | 3.93
